# In patent US20260250410A1, “ANTIBODY AND USE THEREOF” (SICHUAN HUIYU PHARMACEUTICAL CO., LTD., priority 2022, published 2026):
# T1: HuCDCP1-C (Homo sapiens, UniProt Q9H5V8)
# T1 construct: made in house; host or cells: HEK-293T
# T1 sequence (Q9H5V8 30-667): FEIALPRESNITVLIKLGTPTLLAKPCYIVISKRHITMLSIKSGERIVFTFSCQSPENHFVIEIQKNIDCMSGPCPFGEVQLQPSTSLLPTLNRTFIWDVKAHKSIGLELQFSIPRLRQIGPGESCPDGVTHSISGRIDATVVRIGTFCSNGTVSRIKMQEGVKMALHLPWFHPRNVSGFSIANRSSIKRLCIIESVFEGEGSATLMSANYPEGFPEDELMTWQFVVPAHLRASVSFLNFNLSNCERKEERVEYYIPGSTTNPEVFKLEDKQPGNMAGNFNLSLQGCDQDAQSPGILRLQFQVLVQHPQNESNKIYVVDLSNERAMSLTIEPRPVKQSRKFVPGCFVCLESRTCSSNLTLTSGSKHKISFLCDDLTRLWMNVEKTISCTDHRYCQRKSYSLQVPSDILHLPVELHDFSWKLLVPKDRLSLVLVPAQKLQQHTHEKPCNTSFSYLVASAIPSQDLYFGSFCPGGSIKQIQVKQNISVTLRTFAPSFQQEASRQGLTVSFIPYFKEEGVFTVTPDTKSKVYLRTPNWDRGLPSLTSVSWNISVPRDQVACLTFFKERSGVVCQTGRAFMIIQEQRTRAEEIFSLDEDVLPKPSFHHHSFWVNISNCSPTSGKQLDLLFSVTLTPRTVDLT
# Target: T1, HuCDCP1-C
# Test: Caterra affinity of humanized anti-CDCP1 antibodies
# Type: binding
# Conditions: HuCDCP1-C 2 μg/ml immobilized
# Protocol: The humanized anti-CDCP1 antibodies obtained from Example 11 were subjected to gene cloning, constructed into pTT5 expression vector for a small amount of expression in CHO cells (Expi-CHOS: Gibco A29127), and purified with an Fc affinity column (AT Protein A Diamond Plus. No. AA402312). Antibody purity was analyzed by HPLC and determined by Nanodrop. High-throughput affinity assay was carried out for a small amount of antibodies by Caterra.
ka,kd,Molecule
109000 M⁻¹ s⁻¹,0.000321 s⁻¹,"1CP-158: humanized anti-CDCP1 antibody produced by 8C9; VH SEQ ID NO: 346, VL SEQ ID NO: 355 (antibody, V domains shown, humanized antibody 8C9 heavy chain variable region 04; humanized antibody 8C9 light chain variable region 02) VH: EVQLVESGGGLVQPGRSLRLSCTTSGLTFTHYHMSWVRQPPGKAPEWVAIIRNKAYGYTTDYSASVRGRFTISRDDSKSILYLQMNSLKTEDTAVYYCVREGGYGYDGTFAYWGQGTLVTVSS VL: DIQMTQSPSSLSASVGDRVTITCRASESVDNYGISFMNWFQQKPGQPPKLLIYAASNQGSGVPSRFSGSGSGTDFTLTISSMQPEDFATYYCQQSKEVPRTFGGGTKVEIK"
15800 M⁻¹ s⁻¹,0.000579 s⁻¹,"1CP-155: humanized anti-CDCP1 antibody produced by 8C9; VH SEQ ID NO: 343, VL SEQ ID NO: 355 (antibody, V domains shown, humanized antibody 8C9 heavy chain variable region 01; humanized antibody 8C9 light chain variable region 02) VH: EVQLVESGGGLVQPGRSLRLSCTASGLTFTHYHMSWFRQAPGKGLEWVAIIRNKAYGYTTDYSASVRGRFTISRDDSKSILYLQMNSLKTEDTAVYYCVREGGYGYDGTFAYWGQGTLVTVSS VL: DIQMTQSPSSLSASVGDRVTITCRASESVDNYGISFMNWFQQKPGQPPKLLIYAASNQGSGVPSRFSGSGSGTDFTLTISSMQPEDFATYYCQQSKEVPRTFGGGTKVEIK"
108000 M⁻¹ s⁻¹,0.000388 s⁻¹,"1CP-153: humanized anti-CDCP1 antibody produced by 8C9; VH SEQ ID NO: 345, VL SEQ ID NO: 354 (antibody, V domains shown, humanized antibody 8C9 heavy chain variable region 03; humanized antibody 8C9 light chain variable region 01) VH: EVQLVESGGGLVQPGRSLRLSCTTSGLTFTHYHMSWVRQAPGKGPEWVAIIRNKAYGYTTDYSASVRGRFTISRDDSKSILYLQMNSLKTEDTAVYYCVREGGYGYDGTFAYWGQGTLVTVSS VL: DIQMTQSPSSLSASVGDRVTITCRASESVDNYGISFMNWFQQKPGQAPKLLIYAASNQGSGVPSRFSGSGSGTDFTLTISSMQPEDFATYYCQQSKEVPRTFGGGTKVEIK"
118000 M⁻¹ s⁻¹,0.000346 s⁻¹,"1CP-154: humanized anti-CDCP1 antibody produced by 8C9; VH SEQ ID NO: 346, VL SEQ ID NO: 354 (antibody, V domains shown, humanized antibody 8C9 heavy chain variable region 04; humanized antibody 8C9 light chain variable region 01) VH: EVQLVESGGGLVQPGRSLRLSCTTSGLTFTHYHMSWVRQPPGKAPEWVAIIRNKAYGYTTDYSASVRGRFTISRDDSKSILYLQMNSLKTEDTAVYYCVREGGYGYDGTFAYWGQGTLVTVSS VL: DIQMTQSPSSLSASVGDRVTITCRASESVDNYGISFMNWFQQKPGQAPKLLIYAASNQGSGVPSRFSGSGSGTDFTLTISSMQPEDFATYYCQQSKEVPRTFGGGTKVEIK"
123000 M⁻¹ s⁻¹,0.000441 s⁻¹,"1CP-156: humanized anti-CDCP1 antibody produced by 8C9; VH SEQ ID NO: 344, VL SEQ ID NO: 355 (antibody, V domains shown, humanized antibody 8C9 heavy chain variable region 02; humanized antibody 8C9 light chain variable region 02) VH: EVQLVESGGGLVQPGRSLRLSCTTSGLTFTHYHMSWVRQAPGKGLEWVAIIRNKAYGYTTDYSASVRGRFTISRDDSKSILYLQMNSLKTEDTAVYYCVREGGYGYDGTFAYWGQGTLVTVSS VL: DIQMTQSPSSLSASVGDRVTITCRASESVDNYGISFMNWFQQKPGQPPKLLIYAASNQGSGVPSRFSGSGSGTDFTLTISSMQPEDFATYYCQQSKEVPRTFGGGTKVEIK"

# Further lines, the molecule ahead of its results:
Molecule,ka,kd
"1CP-127: humanized anti-CDCP1 antibody produced by 3C11; VH SEQ ID NO: 342, VL SEQ ID NO: 351 (antibody, V domains shown, humanized antibody 3C11 heavy chain variable region 04; humanized antibody 3C11 light chain variable region 01) VH: QVQLVQSGAEVKKPGASVKVSCKASGYNFISYWLHWVRQAPGQGLEWMGGIYPGNTDTTYNQKFKGRVTVTAVTSTSTVYMELSSLRSEDTAVYYCIRYDYDRGMDYWGQGTLVTVSS VL: DIQMTQSPSSLSASVGDRVTITCRASEDIYYRLAWYQQKPGKAPKLLISGATALETGVPSRFSGSGSGKDYTFTISSLQPEDIATYYCQHYWNIPWTFGQGTKVEIK",205000 M⁻¹ s⁻¹,0.00198 s⁻¹
"1CP-132: humanized anti-CDCP1 antibody produced by 3C11; VH SEQ ID NO: 339, VL SEQ ID NO: 353 (antibody, V domains shown, humanized antibody 3C11 heavy chain variable region 01; humanized antibody 3C11 light chain variable region 03) VH: QVQLVQSGAEVKKPGASVKVSCKASGYNFISYWLHWVRQAPGQGLEWMGGIYPGNTDTTYNQKFKGRVTMTRDTSTSTVYMELSSLRSEDTAVYYCIRYDYDRGMDYWGQGTLVTVSS VL: DIQMTQSPSSLSASVGDRVTITCRASEDIYYRLAWYQQKPGNAPKLLISGATALETGVPSRFSGSGSGKDYTLTISSLQPEDIATYYCQHYWNIPWTFGQGTKVEIK",140000 M⁻¹ s⁻¹,1e-05 s⁻¹
"1CP-131: humanized anti-CDCP1 antibody produced by 3C11; VH SEQ ID NO: 342, VL SEQ ID NO: 352 (antibody, V domains shown, humanized antibody 3C11 heavy chain variable region 04; humanized antibody 3C11 light chain variable region 02) VH: QVQLVQSGAEVKKPGASVKVSCKASGYNFISYWLHWVRQAPGQGLEWMGGIYPGNTDTTYNQKFKGRVTVTAVTSTSTVYMELSSLRSEDTAVYYCIRYDYDRGMDYWGQGTLVTVSS VL: DIQMTQSPSSLSASVGDRVTITCRASEDIYYRLAWYQQKPGKAPKLLISGATALETGVPSRFSGSGSGKDYTLTISSLQPEDIATYYCQHYWNIPWTFGQGTKVEIK",191000 M⁻¹ s⁻¹,0.002 s⁻¹
"1CP-135: humanized anti-CDCP1 antibody produced by 3C11; VH SEQ ID NO: 342, VL SEQ ID NO: 353 (antibody, V domains shown, humanized antibody 3C11 heavy chain variable region 04; humanized antibody 3C11 light chain variable region 03) VH: QVQLVQSGAEVKKPGASVKVSCKASGYNFISYWLHWVRQAPGQGLEWMGGIYPGNTDTTYNQKFKGRVTVTAVTSTSTVYMELSSLRSEDTAVYYCIRYDYDRGMDYWGQGTLVTVSS VL: DIQMTQSPSSLSASVGDRVTITCRASEDIYYRLAWYQQKPGNAPKLLISGATALETGVPSRFSGSGSGKDYTLTISSLQPEDIATYYCQHYWNIPWTFGQGTKVEIK",249000 M⁻¹ s⁻¹,0.0012 s⁻¹
"1CP-133: humanized anti-CDCP1 antibody produced by 3C11; VH SEQ ID NO: 340, VL SEQ ID NO: 353 (antibody, V domains shown, humanized antibody 3C11 heavy chain variable region 02; humanized antibody 3C11 light chain variable region 03) VH: QVQLVQSGAEVKKPGASVKVSCKASGYNFISYWLHWVRQAPGQGLEWMGGIYPGNTDTTYNQKFKGRVTMTADTSTSTVYMELSSLRSEDTAVYYCIRYDYDRGMDYWGQGTLVTVSS VL: DIQMTQSPSSLSASVGDRVTITCRASEDIYYRLAWYQQKPGNAPKLLISGATALETGVPSRFSGSGSGKDYTLTISSLQPEDIATYYCQHYWNIPWTFGQGTKVEIK",183000 M⁻¹ s⁻¹,1e-05 s⁻¹
"1CP-151: humanized anti-CDCP1 antibody produced by 8C9; VH SEQ ID NO: 343, VL SEQ ID NO: 354 (antibody, V domains shown, humanized antibody 8C9 heavy chain variable region 01; humanized antibody 8C9 light chain variable region 01) VH: EVQLVESGGGLVQPGRSLRLSCTASGLTFTHYHMSWFRQAPGKGLEWVAIIRNKAYGYTTDYSASVRGRFTISRDDSKSILYLQMNSLKTEDTAVYYCVREGGYGYDGTFAYWGQGTLVTVSS VL: DIQMTQSPSSLSASVGDRVTITCRASESVDNYGISFMNWFQQKPGQAPKLLIYAASNQGSGVPSRFSGSGSGTDFTLTISSMQPEDFATYYCQQSKEVPRTFGGGTKVEIK",158000 M⁻¹ s⁻¹,0.00302 s⁻¹
